The target in assay [1] is T1, GST-41.8 kD PDZ domain fusion protein (hypothetical 41.8 kD protein AA4-85; PDZ domain 1 of 1) (UniProt P08515 1-218 = GST).
T1 construct: also called hypoth
Nature of the assay: A assay.

In assay [2] the target is T2, GST-PSD95 PDZ domain fusion protein (human post-synaptic density protein 95 AA387-724; PDZ domains 1-3 of 3) (human, UniProt P08515 1-218 = GST). Description: A assay.
Assay [3] has as its target T3, GST-CASK PDZ domain fusion protein (CASK AA495-584; PDZ domain 1 of 1) (mouse, UniProt P08515 1-218 = GST).
T3 construct: also called mCASK
Description: A/G assays.

For assay [4], the target named is GST-LIM PDZ domain fusion protein (Human LIM protein AA29-112; PDZ domain 1 of 1) (human, UniProt P08515 1-218 = GST). Nature of the assay: A/G assays.
For assay [5], the target named is GST-LIMK2 PDZ domain fusion protein (human LIM domain kinase 2 AA185-275; PDZ domain 1 of 1) (human, UniProt P08515 1-218 = GST). Nature of the assay: A/G assays.
The target of assay [6] is T4, GST-MPP2 PDZ domain fusion protein (maguk p55 subfamily member 2 (DLG2) AA185-273; PDZ domain 1 of 1) (UniProt P08515 1-218 = GST).
T4 construct: also called MMP2
Description: A/G assays.

Assay [7] has as its target GST-NOS1 PDZ domain fusion protein (human neuronal nitric oxide synthase; PDZ domain 1 of 1) (human, UniProt P08515 1-218 = GST). Nature of the assay: A/G assays.
For assay [8], the target named is GST-AF6 PDZ domain fusion protein (af-6 protein AA985-1077; PDZ domain 1 of 1) (UniProt P08515 1-218 = GST). Nature of the assay: A/G assays.
The target in assay [9] is GST-PTN-4 PDZ domain fusion protein (protein-tyrosine phosphatase meg1 AA774-862; PDZ domain 1 of 1) (UniProt P08515 1-218 = GST). Nature of the assay: A/G assays.
Assay [10] deals with GST-prIL16 PDZ domain fusion protein (putative interleukin 16 precursor AA170-383; PDZ domains 1-2 of 2) (UniProt P08515 1-218 = GST). Description: A/G assays.
Assay [11] deals with T5, GST-KIAA0559 PDZ domain fusion protein (KIAA0559 AA766-870; PDZ1 of 1) (UniProt P08515 1-218 = GST).
T5 construct: also called K559
Nature of the assay: A/G assays.

The target of assay [12] is GST-MPP1 PDZ domain fusion protein (55 Kd erythrocyte membrane protein AA101-186; PDZ domain 1 of 1) (UniProt P08515 1-218 = GST). Nature of the assay: A/G assays.
Assay [13] addresses T6, GST-KIAA0316 PDZ domain fusion protein (KIAA0316 AA197-284; PDZ domain 1 of 1) (UniProt P08515 1-218 = GST).
T6 construct: also called K316
Description: A/G assays.

Assay [14] concerns the target GST-DVL1 PDZ domain fusion protein (human dishevelled segment polarity protein homolog AA248-340); PDZ domain … (human, UniProt P08515 1-218 = GST). Description: A/G assays.
Assay [15] concerns the target T7, GST-TAX40 PDZ domain fusion protein (human tax interaction protein 40 AA35-137; PDZ domain 1 of 1) (human, UniProt P08515 1-218 = GST).
T7 construct: also called TX 40
Nature of the assay: A/G assays.

Assay [16] addresses T8, GST-TIAM1 PDZ domain fusion protein (T-lymphoma invasion and metastasis inducing protein 1 AA1001-1088); PDZ 1 … (UniProt P08515 1-218 = GST). Nature of the assay: A/G assays.
Assay [17] deals with T9, GST-KIAA0303 PDZ domain fusion protein (KIAA0303 AA652-742; PDZ domain 1 of 1) (UniProt P08515 1-218 = GST).
T9 construct: also called K303
Nature of the assay: A/G assays.

Assay [18] concerns the target T10, GST-CBP PDZ domain fusion protein (Cytohesin binding protein HE AA85-175; PDZ domain 1 of 1) (UniProt P08515 1-218 = GST).
T10 construct: also called Prot
Description: A/G assays.

Assay [19] has as its target GST-MINT3 PDZ domain fusion protein (human MINT3 AA11-52; PDZ domain 1 of 1) (human, UniProt P08515 1-218 = GST). Nature of the assay: A/G assays.
Assay [20] concerns the target T11, GST-TAX2 PDZ domain fusion protein (human tax interaction protein 2 AA54-140; PDZ domain 1 of 1) (human, UniProt P08515 1-218 = GST).
T11 construct: also called TX 2
Description: A/G assays.

The target of assay [21] is T12, GST-TAX33 PDZ domain fusion protein (tax interaction protein 33 AA73-162; PDZ domain 1 of 1) (UniProt P08515 1-218 = GST).
T12 construct: also called TX33
Nature of the assay: A/G assays.

Assay [22] deals with T13, GST-SYN1a PDZ domain fusion protein (alpha1-syntrophin AA96-189; PDZ domain 1 of 1) (UniProt P08515 1-218 = GST).
T13 construct: also called SYN 1 alpha; SYNTR 1 alpha
Nature of the assay: A/G assays.

The target of assay [23] is T14, GST-TAX43 PDZ domain fusion protein (human tax interaction protein 43 AA15-85; PDZ domain 1 of 1) (human, UniProt P08515 1-218 = GST).
T14 construct: also called TX 43
Nature of the assay: A/G assays.

The target in assay [24] is T15, GST-NeDLG PDZ domain fusion protein (presynaptic protein sao102, neuroendocrine-dlg; PDZ domains 1-2 of 3) (UniProt P08515 1-218 = GST).
T15 construct: also called NeDLG1
Nature of the assay: A and G assays.

The target in assay [25] is T8, GST-TIAM1 PDZ domain fusion protein …. Description: A assay.
Assay [26] addresses T16, GST-RGS12 PDZ domain fusion protein (human regulator of G-protein signalling 12 AA35-103; PDZ domain 1 of 1) (human, UniProt P08515 1-218 = GST).
T16 construct: also called RSG12
Description: A/G assays.

The target in assay [27] is T2, GST-PSD95 PDZ domain fusion protein …. Description: A/G assays.
Assay [28] concerns the target T15, GST-NeDLG PDZ domain fusion protein …. Nature of the assay: A/G assays.
In assay [29] the target is T1, GST-41.8 kD PDZ domain fusion protein …. Nature of the assay: A and G assays.

Ends that are not written are not given here. * marks the point of attachment. Biotin = O=C1N[C@H]2[C@H](CS[C@H]2CCCCC(=O)*)N1

GST-LIM PDZ domain fusion protein (Human LIM protein AA29-112; PDZ domain 1 of 1), sequence (P08515 1-218, tags or fused parts left off): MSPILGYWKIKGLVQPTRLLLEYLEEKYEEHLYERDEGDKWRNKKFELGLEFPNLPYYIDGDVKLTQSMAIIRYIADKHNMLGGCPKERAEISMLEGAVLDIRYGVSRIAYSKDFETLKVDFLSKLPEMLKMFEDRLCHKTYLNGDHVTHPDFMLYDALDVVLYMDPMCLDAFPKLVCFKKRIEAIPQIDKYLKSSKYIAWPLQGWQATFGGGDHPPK
GST-NOS1 PDZ domain fusion protein (human neuronal nitric oxide synthase; PDZ domain 1 of 1), sequence (P08515 1-218, tags or fused parts left off): as above
T7 sequence (P08515 1-218, tags or fused parts left off): as above
T13 sequence (P08515 1-218, tags or fused parts left off): as above
T2 sequence (P08515 1-218, tags or fused parts left off): as above
T11 sequence (P08515 1-218, tags or fused parts left off): as above
T14 sequence (P08515 1-218, tags or fused parts left off): as above
GST-AF6 PDZ domain fusion protein (af-6 protein AA985-1077; PDZ domain 1 of 1), sequence (P08515 1-218, tags or fused parts left off): as above
GST-prIL16 PDZ domain fusion protein (putative interleukin 16 precursor AA170-383; PDZ domains 1-2 of 2), sequence (P08515 1-218, tags or fused parts left off): as above
T10 sequence (P08515 1-218, tags or fused parts left off): as above
GST-MINT3 PDZ domain fusion protein (human MINT3 AA11-52; PDZ domain 1 of 1), sequence (P08515 1-218, tags or fused parts left off): as above
T15 sequence (P08515 1-218, tags or fused parts left off): as above
GST-MPP1 PDZ domain fusion protein (55 Kd erythrocyte membrane protein AA101-186; PDZ domain 1 of 1), sequence (P08515 1-218, tags or fused parts left off): as above
GST-LIMK2 PDZ domain fusion protein (human LIM domain kinase 2 AA185-275; PDZ domain 1 of 1), sequence (P08515 1-218, tags or fused parts left off): as above
T8 sequence (P08515 1-218, tags or fused parts left off): as above
GST-PTN-4 PDZ domain fusion protein (protein-tyrosine phosphatase meg1 AA774-862; PDZ domain 1 of 1), sequence (P08515 1-218, tags or fused parts left off): as above
T9 sequence (P08515 1-218, tags or fused parts left off): as above
T6 sequence (P08515 1-218, tags or fused parts left off): as above
T4 sequence (P08515 1-218, tags or fused parts left off): as above
T5 sequence (P08515 1-218, tags or fused parts left off): as above
GST-DVL1 PDZ domain fusion protein (human dishevelled segment polarity protein homolog AA248-340); PDZ domain …, sequence (P08515 1-218, tags or fused parts left off): as above

Take Biotin-KDSRPSFVGSSSGHTSTTL [CDW128B (IL8RB) C-terminal PL peptide AA29.2L, biotinylated]: the binding result in assay [1] is given as “binds”; in assay [2], “binds”; in [3] it was “no binding”; in [4], “no binding”; in assay [5] it was “no binding”; in [6] it was “no binding”. Further, the binding result in assay [7], in assay [8], in assay [9], in assay [10], in assay [11] and in assay [12] was “no binding” throughout. The binding result in [13], in assay [14], in assay [15], in [16], in assay [17] and in assay [18] was “no binding” in each case. In addition, the binding result in [19] is reported as “no binding”; in [20], “no binding”; in assay [21], “no binding”; in [22], “no binding”; in [23], “no binding”; in [24], “binds”.
In the case of Biotin-PKQANGGAYQKPTKQEEFYA [CD138 (syndecan) C-terminal PL peptide AA18L, biotinylated], the binding result in assay [25] is on record as “binds”; in assay [4] it was “no binding”; in [5] it was “no binding”; in assay [6] it was “no binding”; in assay [7], “no binding”; in [8], “no binding”. In addition, the binding result in assay [9], in [10], in [11], in [12], in [26] and in assay [13] was “no binding” in each case. The binding result in [14], in [15], in [17], in [18], in assay [19] and in assay [20] was “no binding” each time. Further, the binding result is “no binding” in assay [27]; “no binding” in assay [28]; “no binding” in assay [21]; “no binding” in assay [22]; “no binding” in [23]; “binds” in [29].
